Here are results for twelve molecules from publication PMC4737149, “The autoinhibitory CARD2-Hel2i Interface of RIG-I governs RNA selection”.

For data set [1], the target named is T1, RIG-I R109A/L110A (CARD2-Hel2i interface mutant) (human, UniProt O95786 1-925, R109A;L110A).
T1 sequence: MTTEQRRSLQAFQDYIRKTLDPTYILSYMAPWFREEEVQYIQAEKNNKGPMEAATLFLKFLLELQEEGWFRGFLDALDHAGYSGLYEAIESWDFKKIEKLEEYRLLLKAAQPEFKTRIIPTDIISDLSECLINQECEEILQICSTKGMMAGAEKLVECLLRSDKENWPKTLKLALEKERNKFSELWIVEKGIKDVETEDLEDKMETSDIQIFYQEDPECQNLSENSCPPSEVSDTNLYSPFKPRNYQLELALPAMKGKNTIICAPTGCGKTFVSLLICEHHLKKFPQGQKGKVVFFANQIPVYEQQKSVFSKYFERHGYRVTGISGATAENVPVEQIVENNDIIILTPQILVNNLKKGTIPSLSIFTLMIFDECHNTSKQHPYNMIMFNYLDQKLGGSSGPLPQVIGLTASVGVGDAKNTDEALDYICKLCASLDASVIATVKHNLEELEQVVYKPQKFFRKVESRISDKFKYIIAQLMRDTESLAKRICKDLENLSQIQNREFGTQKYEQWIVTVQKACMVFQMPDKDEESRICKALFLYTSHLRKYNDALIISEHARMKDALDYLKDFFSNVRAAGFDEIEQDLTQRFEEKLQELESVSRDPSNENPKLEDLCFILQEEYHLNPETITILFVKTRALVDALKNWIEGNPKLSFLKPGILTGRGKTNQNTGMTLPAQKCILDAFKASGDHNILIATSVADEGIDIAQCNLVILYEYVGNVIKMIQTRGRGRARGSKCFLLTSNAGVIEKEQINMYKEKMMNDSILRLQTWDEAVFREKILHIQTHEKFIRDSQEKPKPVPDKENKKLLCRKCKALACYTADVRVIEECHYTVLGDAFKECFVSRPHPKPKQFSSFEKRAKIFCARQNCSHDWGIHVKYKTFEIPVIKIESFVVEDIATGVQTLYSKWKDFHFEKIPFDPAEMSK
The data set is described as follows: ATPase titration (Kd,app); ATP, 15 C; Buffer A (composition not in the material; 150 mM NaCl stated for some supplementary assays); anisotropy at 15 C with 1-2 nM (blunt) or 40 nM (non-blunt) labell. To be noted: protein: recombinant, tags: N-terminal SUMO fusion construct, His (Ni-NTA).

Data set [2] deals with T2, Helicase-RD (RIG-I lacking CARDs) (human, UniProt O95786 232-925).
T2 sequence: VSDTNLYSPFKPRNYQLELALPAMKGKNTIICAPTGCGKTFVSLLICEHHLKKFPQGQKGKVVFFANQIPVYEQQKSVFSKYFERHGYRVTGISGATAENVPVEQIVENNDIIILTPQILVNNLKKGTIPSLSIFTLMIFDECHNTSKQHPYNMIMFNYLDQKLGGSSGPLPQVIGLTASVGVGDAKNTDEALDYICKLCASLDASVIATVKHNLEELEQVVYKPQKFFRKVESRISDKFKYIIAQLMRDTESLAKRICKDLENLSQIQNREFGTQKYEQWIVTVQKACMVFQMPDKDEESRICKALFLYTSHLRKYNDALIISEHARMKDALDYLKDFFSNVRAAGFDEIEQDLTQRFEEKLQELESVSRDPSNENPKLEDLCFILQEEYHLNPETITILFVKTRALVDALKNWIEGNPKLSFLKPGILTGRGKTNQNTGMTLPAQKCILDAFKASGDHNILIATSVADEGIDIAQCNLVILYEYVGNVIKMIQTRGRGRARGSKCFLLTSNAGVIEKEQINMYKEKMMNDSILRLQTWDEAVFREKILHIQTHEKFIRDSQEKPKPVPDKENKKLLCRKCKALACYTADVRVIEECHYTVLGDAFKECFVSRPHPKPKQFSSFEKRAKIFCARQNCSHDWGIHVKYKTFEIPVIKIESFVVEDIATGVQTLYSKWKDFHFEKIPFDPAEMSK
Described as above. To be noted: protein: recombinant, tags: N-terminal SUMO fusion construct, His (Ni-NTA).

Data set [3] concerns the target T2, Helicase-RD (RIG-I lacking CARDs). The data set is described as follows: ATPase titration (Kd,app); ATP, 37 C; Buffer A (composition not in the material; 150 mM NaCl stated for some supplementary assays); anisotropy at 15 C with 1-2 nM (blunt) or 40 nM (non-blunt) labell. The note with it: protein: recombinant; tags: N-terminal SUMO fusion construct, His (Ni-NTA); single strand.

The target of data set [4] is T3, RIG-I full length (wt) (human, UniProt O95786 1-925).
T3 sequence: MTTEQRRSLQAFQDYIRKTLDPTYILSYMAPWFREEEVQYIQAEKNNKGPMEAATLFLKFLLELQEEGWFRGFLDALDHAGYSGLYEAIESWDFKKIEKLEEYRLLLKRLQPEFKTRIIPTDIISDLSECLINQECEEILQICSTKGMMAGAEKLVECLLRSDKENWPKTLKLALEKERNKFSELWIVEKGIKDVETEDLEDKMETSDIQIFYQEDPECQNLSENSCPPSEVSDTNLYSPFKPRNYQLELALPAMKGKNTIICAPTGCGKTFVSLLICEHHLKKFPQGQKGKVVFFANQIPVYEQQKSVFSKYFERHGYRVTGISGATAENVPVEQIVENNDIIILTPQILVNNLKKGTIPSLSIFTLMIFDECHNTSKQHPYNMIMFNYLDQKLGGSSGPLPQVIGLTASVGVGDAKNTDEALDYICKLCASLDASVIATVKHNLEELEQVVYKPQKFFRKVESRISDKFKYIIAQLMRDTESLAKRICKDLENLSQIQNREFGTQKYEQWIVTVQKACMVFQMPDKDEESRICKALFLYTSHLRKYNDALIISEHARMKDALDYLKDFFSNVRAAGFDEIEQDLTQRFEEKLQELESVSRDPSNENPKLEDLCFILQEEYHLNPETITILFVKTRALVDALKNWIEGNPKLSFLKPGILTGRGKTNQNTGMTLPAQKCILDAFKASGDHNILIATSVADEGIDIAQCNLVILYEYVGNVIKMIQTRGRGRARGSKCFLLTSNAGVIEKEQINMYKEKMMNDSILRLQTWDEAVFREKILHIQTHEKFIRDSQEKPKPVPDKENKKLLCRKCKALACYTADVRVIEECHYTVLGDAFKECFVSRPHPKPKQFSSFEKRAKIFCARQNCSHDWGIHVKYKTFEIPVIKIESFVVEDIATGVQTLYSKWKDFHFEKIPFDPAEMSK
Described as above. The note with it: protein: recombinant, tags: N-terminal SUMO fusion construct, His (Ni-NTA).

Data set [5] deals with T3, RIG-I full length (wt). As to the kind of experiment: fluorescence anisotropy; no ATP, 15 C; Buffer A (composition not in the material; 150 mM NaCl stated for some supplementary assays); anisotropy at 15 C with 1-2 nM (blunt) or 40 nM (non-blunt) labell. To be noted: protein: recombinant, tags: N-terminal SUMO fusion construct, His (Ni-NTA).
Data set [6] deals with T3, RIG-I full length (wt). The data set is described as follows: ATPase titration (Kd,app); ATP, 150 mM NaCl, 37 C; Buffer A (composition not in the material; 150 mM NaCl stated for some supplementary assays); anisotropy at 15 C with 1-2 nM (blunt) or 40 nM (non-blunt) labell. To be noted: protein: recombinant, tags: N-terminal SUMO fusion construct, His (Ni-NTA).
The target of data set [7] is T2, Helicase-RD (RIG-I lacking CARDs). The data set is described as follows: stopped-flow kinetics (koff/kon); 15 C; koff 1.5e-3 s-1, kon 6e8 M-1 s-1; Buffer A (composition not in the material; 150 mM NaCl stated for some supplementary assays); anisotropy at 15 C with 1-2 nM (blunt) or 40 nM (non-blunt) labell. To be noted: protein: recombinant, tags: N-terminal SUMO fusion construct, His (Ni-NTA), none in ATPase assays.

The target of data set [8] is T3, RIG-I full length (wt). As to the kind of experiment: ATPase titration (Kd,app); ATP, 15 C; same as Kd without ATP; Buffer A (composition not in the material; 150 mM NaCl stated for some supplementary assays); anisotropy at 15 C with 1-2 nM (blunt) or 40 nM (non-blunt) labell. The note with it: protein: recombinant, tags: N-terminal SUMO fusion construct, His (Ni-NTA), none in ATPase assays.

Data set [9] addresses T4, RIG-I C-terminal repressor domain (RD) (human, UniProt O95786 801-925).
T4 sequence: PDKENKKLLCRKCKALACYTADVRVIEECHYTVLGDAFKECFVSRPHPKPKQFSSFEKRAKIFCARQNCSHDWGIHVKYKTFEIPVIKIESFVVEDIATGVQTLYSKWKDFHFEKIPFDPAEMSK
The data set is described as follows: fluorescence anisotropy; no ATP, 15 C; Buffer A (composition not in the material; 150 mM NaCl stated for some supplementary assays); anisotropy at 15 C with 1-2 nM (blunt) or 40 nM (non-blunt) labell. The note with it: protein: recombinant; tags: N-terminal SUMO fusion construct, His (Ni-NTA); label: fluorescein on strand 2 in fluorescence assays; 3' overhangs 2 nt at both ends, 8 bp.

In data set [10] the target is T3, RIG-I full length (wt). The data set is described as follows: ATPase titration (Kd,app); ATP, 15 C; Buffer A (composition not in the material; 150 mM NaCl stated for some supplementary assays); anisotropy at 15 C with 1-2 nM (blunt) or 40 nM (non-blunt) labell. To be noted: protein: recombinant; tags: N-terminal SUMO fusion construct, His (Ni-NTA); label: fluorescein on strand 2 in fluorescence assays; 3' overhangs 2 nt at both ends, 8 bp.

Data set [11] concerns the target T3, RIG-I full length (wt). The description is as above. To be noted: protein: recombinant, tags: N-terminal SUMO fusion construct, His (Ni-NTA), label: fluorescein on strand 2 in fluorescence assays (5' for anisotropy, 3' for intensity), none in ATPase assays.
The mark [12] stands for this setting: label: fluorescein on strand 2 in fluorescence assays, 3' overhangs 2 nt at both ends, 8 bp.
Where [13] appears, read: label: 5' fluorescein on strand 2 in fluorescence assays, 5' overhangs 2 nt at both ends, 8 bp.
The mark [14] stands for this setting: hairpin with 5-nt U overhangs at both 5' and 3' ends.
Where [15] appears, read: label: fluorescein on strand 2 in fluorescence assays (5' for anisotropy, 3' for intensity), none in ATPase assays, blunt.

B1: 5'OH 3'ovg RNA (dsRNA)
RNA 1: CGUGAGACAU
RNA 2: GUCUCACGUA
Regarding B1, the Kd in data set [1] (setting [12]) is 121 ± 14 nM; in [2] (setting [12]), about 1.5 nM.
As to CGUGAGACAU (ssRNA) [5'OH ss10 RNA], in data set [3], the Kd is 1600 ± 500 nM.

B2: 5'ppp 5'ovg RNA (dsRNA)
RNA 1: CGUGAGACAU
RNA 2: UCAUGUCUCA
modifications: 5'-triphosphate on strand 1
In the case of B2, the Kd in data set [1] (setting [13]) is 43 ± 5 nM; in [2] (setting [13]) it was about 0.1 nM.
Turning to UUUUUGAAUAUAAUAGUGAUAUUAUAUUCUUUUU (structured_RNA) [dsRNA stem (hairpin with two overhangs)], the Kd in data set [1] (setting [14]) is 53 ± 9 nM; in data set [2] (setting [14]), 0.6 ± 0.4 nM; in the data set with RIG-I full length (wt) [4] (setting [14]), 629 ± 165 nM; with RIG-I full length (wt) [5] (setting [14]), about 450 nM.
On to GAAUAUAAUAGUGAUAUUAUAUUC (structured_RNA, 5'-triphosphate) [5'ppp HP], for which the Kd with RIG-I full length (wt) [4] (hairpin, blunt) came to 6 ± 0.7 nM.
The same measure, in the same setting: to GAAUAUAAUAGUGAUAUUAUAUUC (structured_RNA) [5'OH HP] belongs 39 ± 4 nM.

B3: 5'OH 5'ovg RNA (dsRNA)
RNA 1: CGUGAGACAU
RNA 2: UCAUGUCUCA
Consider B3, for which the Kd was 64 ± 7 nM in [1] (setting [13]), about 1.5 nM in data set [2] (setting [13]) and about 450 nM with RIG-I full length (wt) [5] (setting [13]).

B4: 5'ppp RNA (10-bp blunt) (dsRNA)
RNA 1: CGUGAGACAU
RNA 2: AUGUCUCACG
modifications: 5'-triphosphate on strand 1
As to B4, the Kd in data set [1] (none in ATPase assays, blunt) came to 0.1 ± 0.1 nM; in the data set with RIG-I full length (wt) [5] (none in ATPase assays, blunt), 0.4 ± 0.2 nM; with RIG-I full length (wt) [6] (none in ATPase assays), 90 ± 29 nM; in data set [7] it was 0.0025 nM. Moreover, in the data set with RIG-I full length (wt) [8], the binding signal was 1 fold Kd,app/Kd without ATP.
Take CGUGAGACAU (ssRNA, 5'-triphosphate) [5'ppp ss10 RNA]: in [3], the Kd worked out at 500 ± 100 nM.

B5: 5'ppp RNA 3'F (dsRNA)
RNA 1: CGUGAGACAU
RNA 2: AUGUCUCACG
modifications: 5'-triphosphate on strand 1
Turning to B5, the Kd with RIG-I full length (wt) [6] (label: 3' fluorescein on strand 2) was determined as 73 ± 18 nM.

B6: 5'ppp 3'ovg RNA (dsRNA)
RNA 1: CGUGAGACAU
RNA 2: GUCUCACGUA
modifications: 5'-triphosphate on strand 1
Regarding B6, the Kd in data set [1] (setting [12]) was 16 ± 4 nM; in [2] (setting [12]) it was about 0.1 nM; in [9], 165 ± 2 nM; with RIG-I full length (wt) [5] (setting [12]) it was 3 ± 0.4 nM. Besides, the binding signal with RIG-I full length (wt) [10] was ~16 fold Kd,app/Kd without ATP.

B7: 5'OH RNA (10-bp blunt) (dsRNA)
RNA 1: CGUGAGACAU
RNA 2: AUGUCUCACG
Turning to B7, the values for the Kd (in data set [1] (setting [15]); in data set [2] (setting [15]); in the data set with RIG-I full length (wt) [5] (setting [15])) were 0.2 ± 0.3 nM, 0.07 nM and 6 ± 0.4 nM, respectively. For the same molecule, the binding signal with RIG-I full length (wt) [11] is ~2.5 fold Kd,app/Kd without ATP.
